In US9371374 (AbbVie / Abbott, dated 2016) one finds Kd, koff and kon data, which are given here for 24 molecules.

For orientation: Kd means the equilibrium constant for the complex coming apart. A lower Kd goes with higher affinity. The koff is the first-order rate constant of dissociation. As usually defined, the kon is the second-order rate constant of association. High values mean fast association, low ones slow association.

To fix the notation:
B1: HCV 208A-352 (antibody, V domains shown)
VH: QGQMQQSGAELVKPGASVKLSCKTSGFTFSSSFISWLKQKPGQSLEWIAWIYAGTGNTNYNQKFTDKAQLTVDTSSSTAYMQFSSLTTEDSAIYYCAISGTGFTYWGQGTLVTVSA
VL: DVLMAQTPLSLPVTLGDQASISCRSSQSLVHSNGNTYLEWFLQKPGQSPKLLIYNVSNRFSGVPDRFSGSGSGTDFTLKISRVEAEDLGVYYCFQGSHVPLTFGSGTKLEIKR
B2: HCV 208B-1024 (antibody, V domains shown)
VH: EVQLVESGGDLVKPGGSLKLSCAASGFTFSNYGMSWVRQTPDKRLEWVATISSGGSYSYYPDSVKGRFTISRDNAKNILYLQMSSLKSEDTAMYYCASLYYGYGDYWGQGTAFTVSS
VL: B1 VL with A5T, T14S, L29I, F41Y, P45L, N55R, L101W, S105G
B3: HCV 208A-134 (antibody, V domains shown)
VH: B1 VH with V12A, F33Y, F83L
VL: EVLMTQSPLSLPVSLGDQASISCRSSQSLEHTNGNTYLEWFLQRPGQPPKLLIYKVSSRFSGVPDRFSGSGSGTDFTLKISRVEAEDLGVYYCFQGSHVPFTFGSGTKLAIKR
B4: HCV 208B-471 (antibody, V domains shown)
VH: QGQLQQSGPVLVKPGASEILYCKTSGFTFSSTYISWLKQKPGQSLEWIAWIYAGTGATNYNQKFTGKAQLTVDASSNTAYMHFSGLTPEDSAIYYCAISGAGVYWGQGTLVTVSA
VL: B1 VL with L3V, A5T, T14S, V30L, F41Y, K50N, T77A, E84G, S105A, I111L
B5: HCV 208A-983 (antibody, V domains shown)
VH: B1 VH with F33Y, I34F, N59I, S75A, Y80F, F83L, T88I
VL: B1 VL with A5T, T14N, V30L, L101F, E110A
B6: HCV 208B-281 (antibody, V domains shown)
VH: B1 VH with M4L, F33Y, K40R, N57G, T104I
VL: B1 VL with A5T, T14S, S32N, N55K, L101F
B7: HCV 208A-638 (antibody, V domains shown)
VH: QGQLQQPGAEFVKPGASLKLSCRASGYTFTSYWIHWVKQRPGQGLEWIGEVDPSDSYINQNEKFRGKATLTVDKSSSTAYMQLGSLTSEDSAVYYCARHYYGVLDSWGQGTALTVSS
VL: QIVLTQSPTIMSASLGERVTMTCTASSSVSSSYLHWFQQKPGSSPKLWIYSTSNLASGVPPRFSGSGSGTSYSLSISSVEAEDVATYYCLQFHRSPWTFGGGAKLEIKR
B8: HCV 208B-189 (antibody, V domains shown)
VH: QVHLQQSGAELAKPGASVQMSCKASGYTFTANKMHWARQRPRQGLEWIGYIDPASGYTEYNQKIKDRATLTADKSSSTAYMQLSSLTSEDSAVYYCTNFAYWGQGTLVTVST
VL: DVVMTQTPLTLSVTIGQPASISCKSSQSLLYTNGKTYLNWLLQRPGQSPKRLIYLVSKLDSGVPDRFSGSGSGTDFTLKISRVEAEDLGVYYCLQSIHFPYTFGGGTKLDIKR
B9: HCV 208B-589 (antibody, V domains shown)
VH: QVQLQQSGAGLAKPGASVKMSCKASGYTFTANKMHWAKQRPGQGLEWIGYIDPSSGYTEYNHKIQDKATLTADTSSSTAYMQLSSLTFEDSAVYYCTNFAYWGQGTLVTVSA
VL: DIVMTQTPLTLSVTIGQPASISCKSSQSLLFTNGKTYLNWFLQRPGQSPKRLIYLLSKLDSGVPDRFSGSGSGTDFTLKISRVEAEDLGVYYCLQSTYFPLTFGAGTKLELKR
B10: HCV 208B-547 (antibody, V domains shown)
VH: B9 VH with G10E, A31S, H62Q, Q65K, T74K, F88S
VL: EVVLTQSPAITAASLGQKVTITCRASSSVSYMHWYRQKSGTSPQPWIYEISTLASGVPTRFRASGSGTSYSLTISSMEAEDAAIYYCQQWNYPLTFGAGTKLELKR
B11: HCV 208B-560 (antibody, V domains shown)
VH: EVQLQQSGPELEKPGASVKISCKTSGYTFTEYAMHWVKQSHGMSLEWIGGINPSNGNAIYNQIFKDKATLTVDRSSSTAYMGLRSLTFGDSGVYFCVRRQLDFFDYWGQGASLTVSS
VL: DIVVTQSPASLAVSLGQRATISCRASQSVSTSRYSYLHWYQQKPGQPPKLLIKYASNLESGVPARFSGSGSGTDFTLNIHPVGEEDTATYYCQHSWEFPFTFGSGTKLEIKR
B12: HCV 208A-920 (antibody, V domains shown)
VH: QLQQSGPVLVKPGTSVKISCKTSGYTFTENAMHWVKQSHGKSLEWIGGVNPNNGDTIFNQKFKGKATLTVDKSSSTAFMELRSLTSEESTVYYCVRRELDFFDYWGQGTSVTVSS
VL: B11 VL with V4L, L37M, G83A, T89A
B13: HCV 208A-1064 (antibody, V domains shown)
VH: EVQLQQSGPELVKPGASVKISCKTSGYTFTEYAMHWMKQSHGKSLEWIGGINPTNGDTIYNQKFKDKAKLTVDRSSSTAYMELRSLTSDDSALFYCARRELDYFASWGQGTTLTVSS
VL: B11 VL with V4L, A12I, R18T, Y34F, Y40I, A64V, G83E, Y91F, E109K
B14: HCV 208A-830 (antibody, V domains shown)
VH: EVRLQQPGPEVEKPGASVKISCKTSGYTFTEYAIHWVKQSHGESLEWIGGINPSNGDPIYNQIFKDKATLTVDRSSNTAYMGLRSLTVGDSGVYFCVRRQLDYFDFWGQGASLTVSS
VL: B11 VL with V4L, A25S, T87P
B15: HCV 208A-133 (antibody, V domains shown)
VH: QLQQSGPVLVGPGASVMISCKTSGYTFTENAMHWVEQSHGKSLEWIGGVNPNNGDTIFNQKFKGKATLTVDKSSSTAFMEFRSLTSEESTVYYCVRRELDFFDYWGQGTSVTVSS
VL: B11 VL with V4L, L37M, G83A
B16: HCV 208A-334 (antibody, V domains shown)
VH: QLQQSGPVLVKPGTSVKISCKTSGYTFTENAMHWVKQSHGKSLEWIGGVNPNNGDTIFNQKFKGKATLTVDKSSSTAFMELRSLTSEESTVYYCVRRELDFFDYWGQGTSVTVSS
VL: B11 VL with V4L, L37M, G83A, T89A, E97G
B17: HCV 208A-605 (antibody, V domains shown)
VH: B11 VH with M34I
VL: B11 VL
B18: HCV 208A-159 (antibody, V domains shown)
VH: B15 VH with V8A, L9Q, G11K, E36K, G64D, T67A, F81L
VL: B11 VL with V4L, L37V, S56A, G83A, T87A, T89A
B19: HCV 208A-222 (antibody, V domains shown)
VH: B11 VH with K19R, M43K, S54N, F103Y
VL: B11 VL
B20: HCV 208B-556 (antibody, V domains shown)
VH: B15 VH with G11K, E36K
VL: B11 VL with V4L, L37M, G83A
B21: HCV 208B-251 (antibody, V domains shown)
VH: B15 VH with G11K, M17K, E36K, F58Y, F81L, T90P, Y93F
VL: B11 VL with V4L, Q17K, R18K, L37M, Q46H, G83A, T89A
B22: HCV 208B-1094 (antibody, V domains shown)
VH: B13 VH with K63R
VL: DIVLTQSPASLIVSLGQTATISCRASQSLSTSRFSYVHWIQQKPGQPPKLLIKYASNLESGVPVRFSGSGSGTDFTLNIHPVEEEDTATYFCQHSWEFPFTFGSGTKLKIKR
B23: HCV 208A-877 (antibody, V domains shown)
VH: QLQQSGPELVKPGASVKISCKTSGYTFTENAMHWVKQSRGKSLEWIGGVNPNNGDTVYTQKFKGKATLTVAKSSSTAYMELRTMTCEESTVYYCASREPDFFDYWGQGSSVTVSS
VL: QIVLTQSPAIMSVSPGEKVSMTCSASSSVTYMHWYQQKSGTSPKRWIYDTSELASGVPARFSGSGSGTTYSLTISSMEAEDAATYYCQQWSNKPLTFGAGTKLELKR
B24: HCV 208B-174 (antibody, V domains shown)
VH: EVKLEESGGGLVQPGGSMKLSCVASGFSFSSYWMSWVRQSPEKGLDWVAEIRLRSDNYATHYAESVKGRFTISRDDSISRLYLQMNTLRAEDTGIYYCTWMTYWGQGTLVTVSA
VL: QNVLTQSPAIMSASPGEKVTMSCSASSSVTYMFWYQLKPESSPRLLIYDTSNLASGVPVRFSGSGSGTSYSLTISRMEAEDAATYYCQEWSSYPLTFGAGTKLDLKR

Changes are numbered by the printed parent chain.

The target of this experiment is HCV Core 134-171-TT peptide (ALRZ-9 peptide) (HCV-1). Put plainly: SPR, captured mAb.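 Also: Anti-HCV Core mAbs from hybridoma supernatants held on a rabbit anti-mouse IgG CM5 surface, peptide flowed over 3 min then 4 min dissociation, duplicate concentrations.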
In the case of B1, the Kd is 520 pM, the koff was 5.4e-05 s⁻¹ and the kon came to 100000 M⁻¹ s⁻¹.

Molecule B2 came in with a Kd of 15000 pM, a koff of 0.014 s⁻¹ and a kon of 1e+06 M⁻¹ s⁻¹.

B3 had a Kd of 2100 pM, a koff of 3.8e-05 s⁻¹ and a kon of 18000 M⁻¹ s⁻¹.

For B4, binding was put at a Kd of 250 pM, the koff stood at 5.5e-05 s⁻¹ and the kon came to 220000 M⁻¹ s⁻¹.

For the molecule B5, the Kd came to 460 pM, the koff stood at 4.6e-05 s⁻¹ and the kon is 97000 M⁻¹ s⁻¹.

For B6, the Kd stood at 96000 pM, the koff is 0.00025 s⁻¹ and the kon was determined as 2200 M⁻¹ s⁻¹.

B7 returned a Kd of 200 pM, a koff of 0.00053 s⁻¹ and a kon of 2.7e+06 M⁻¹ s⁻¹.

Turning to B8, the Kd was determined as 170 pM, the koff was 0.00015 s⁻¹ and the kon came out at 880000 M⁻¹ s⁻¹.

As for B9, binding was put at a Kd of 630 pM, the koff is 0.00061 s⁻¹ and the kon was 960000 M⁻¹ s⁻¹.

The molecule B10 gave a Kd of 3200 pM, a koff of 0.0049 s⁻¹ and a kon of 1.6e+06 M⁻¹ s⁻¹.

B11 had a Kd of 230 pM, a koff of 0.00026 s⁻¹ and a kon of 1.1e+06 M⁻¹ s⁻¹.

Molecule B12 gave a Kd of 390 pM, a dissociation rate constant (koff) of 0.00056 s⁻¹ and a kon of 1.5e+06 M⁻¹ s⁻¹.

Consider B13, for which the Kd amounted to 210 pM, the koff was found to be 0.00034 s⁻¹ and the kon was determined as 1.6e+06 M⁻¹ s⁻¹.

Regarding B14, binding was characterised by a dissociation constant (Kd) of 160 pM, the koff is 0.00054 s⁻¹ and the kon is 3.4e+06 M⁻¹ s⁻¹.

Regarding B15, the affinity, expressed as Kd, was 410 pM; the koff worked out at 0.0005 s⁻¹; the kon is 1.2e+06 M⁻¹ s⁻¹.

B16 yielded a Kd of 340 pM, a dissociation rate constant (koff) of 0.00057 s⁻¹ and a kon of 1.7e+06 M⁻¹ s⁻¹.

Take B17: the Kd was 430 pM, the koff was 0.00037 s⁻¹ and the kon came to 870000 M⁻¹ s⁻¹.

B18 yielded a Kd of 450 pM, a koff of 0.00065 s⁻¹ and a kon of 1.4e+06 M⁻¹ s⁻¹.

For B19, the Kd was determined as 310 pM, the koff was 0.00035 s⁻¹ and the kon was 1.1e+06 M⁻¹ s⁻¹.

In the case of B20, binding was put at a Kd of 400 pM, the koff stood at 0.0006 s⁻¹ and the kon worked out at 1.5e+06 M⁻¹ s⁻¹.

B21 yielded a Kd of 580 pM, a koff of 0.00065 s⁻¹ and a kon of 1.1e+06 M⁻¹ s⁻¹.

In turn, B22 registered a Kd of 160 pM, a koff of 0.00025 s⁻¹ and a kon of 1.5e+06 M⁻¹ s⁻¹.

Molecule B23 had a Kd of 2200 pM, a koff of 0.0024 s⁻¹ and a kon of 1.1e+06 M⁻¹ s⁻¹.

B24 gave a Kd of 250 pM, a koff of 0.00018 s⁻¹ and a kon of 760000 M⁻¹ s⁻¹.
